Measurements published in PMC6992768, “Loss-of-function mutations in UDP-Glucose 6-Dehydrogenase cause recessive developmental epileptic encephalopathy” (Nature Communications, 2020).

Biological target: the molecule itself
Test: SEC; analytical gel filtration of each apoprotein alone; 1x PBS with 1 mM DTT, 0.5 mL/min, Superdex gel filtration column, elution followed by A280; peaks compared with known hexamer, dimer and monomer elution times

Row | Protein | stoichiometry N | binding result
1 | UGDH A44V (enzyme, human, UniProt O60701 1-494, looked up, human UDP-glucose 6-dehydrogenase (UGDH) with the patient variant A44V, made from WT-UGDH pET28a; Germline variant found in patients (families 1, 11, 13); Eluted mainly as a dimer by gel filtration; also called p.A44V; p.Ala44Val) MFEIKKICCIGAGYVGGPTCSVIAHMCPEIRVTVVDVNESRINVWNSPTLPIYEPGLKEVVESCRGKNLFFSTNIDDAIKEADLVFISVNTPTKTYGMGKGRAADLKYIEACARRIVQNSNGYKIVTEKSTVPVRAAESIRRIFDANTKPNLNLQVLSNPEFLAEGTAIKDLKNPDRVLIGGDETPEGQRAVQALCAVYEHWVPREKILTTNTWSSELSKLAANAFLAQRISSINSISALCEATGADVEEVATAIGMDQRIGNKFLKASVGFGGSCFQKDVLNLVYLCEALNLPEVARYWQQVIDMNDYQRRRFASRIIDSLFNTVTDKKIAILGFAFKKDTGDTRESSSIYISKYLMDEGAHLHIYDPKVPREQIVVDLSHPGVSEDDQVSRLVTISKDPYEACDGAHAVVICTEWDMFKELDYERIHKKMLKPAFIFDGRRVLDGLHNELQTIGFQIETIGKKVSSKRIPYAPSGEIPKFSLQDPPNKKPKV | 2 | 
2 | UGDH T325D (enzyme, human, UniProt O60701 1-494, looked up, human UDP-glucose 6-dehydrogenase (UGDH) with T325D, made from WT-UGDH pET28a) MFEIKKICCIGAGYVGGPTCSVIAHMCPEIRVTVVDVNESRINAWNSPTLPIYEPGLKEVVESCRGKNLFFSTNIDDAIKEADLVFISVNTPTKTYGMGKGRAADLKYIEACARRIVQNSNGYKIVTEKSTVPVRAAESIRRIFDANTKPNLNLQVLSNPEFLAEGTAIKDLKNPDRVLIGGDETPEGQRAVQALCAVYEHWVPREKILTTNTWSSELSKLAANAFLAQRISSINSISALCEATGADVEEVATAIGMDQRIGNKFLKASVGFGGSCFQKDVLNLVYLCEALNLPEVARYWQQVIDMNDYQRRRFASRIIDSLFNDVTDKKIAILGFAFKKDTGDTRESSSIYISKYLMDEGAHLHIYDPKVPREQIVVDLSHPGVSEDDQVSRLVTISKDPYEACDGAHAVVICTEWDMFKELDYERIHKKMLKPAFIFDGRRVLDGLHNELQTIGFQIETIGKKVSSKRIPYAPSGEIPKFSLQDPPNKKPKV |  | binds
3 | UDP-Glucose 6-Dehydrogenase (UGDH), wild type (enzyme, human, UniProt O60701 1-494, looked up, human UDP-glucose 6-dehydrogenase (UGDH), codon-optimised E. coli expression construct WT-UGDH pET28a; also called UGDH^WT; WT-UGDH) MFEIKKICCIGAGYVGGPTCSVIAHMCPEIRVTVVDVNESRINAWNSPTLPIYEPGLKEVVESCRGKNLFFSTNIDDAIKEADLVFISVNTPTKTYGMGKGRAADLKYIEACARRIVQNSNGYKIVTEKSTVPVRAAESIRRIFDANTKPNLNLQVLSNPEFLAEGTAIKDLKNPDRVLIGGDETPEGQRAVQALCAVYEHWVPREKILTTNTWSSELSKLAANAFLAQRISSINSISALCEATGADVEEVATAIGMDQRIGNKFLKASVGFGGSCFQKDVLNLVYLCEALNLPEVARYWQQVIDMNDYQRRRFASRIIDSLFNTVTDKKIAILGFAFKKDTGDTRESSSIYISKYLMDEGAHLHIYDPKVPREQIVVDLSHPGVSEDDQVSRLVTISKDPYEACDGAHAVVICTEWDMFKELDYERIHKKMLKPAFIFDGRRVLDGLHNELQTIGFQIETIGKKVSSKRIPYAPSGEIPKFSLQDPPNKKPKV |  | binds
4 | UGDH ∆132 (enzyme, human, UniProt O60701 1-494, looked up, source: purified recombinant; expression not described for this mutant) MFEIKKICCIGAGYVGGPTCSVIAHMCPEIRVTVVDVNESRINAWNSPTLPIYEPGLKEVVESCRGKNLFFSTNIDDAIKEADLVFISVNTPTKTYGMGKGRAADLKYIEACARRIVQNSNGYKIVTEKSTPVRAAESIRRIFDANTKPNLNLQVLSNPEFLAEGTAIKDLKNPDRVLIGGDETPEGQRAVQALCAVYEHWVPREKILTTNTWSSELSKLAANAFLAQRISSINSISALCEATGADVEEVATAIGMDQRIGNKFLKASVGFGGSCFQKDVLNLVYLCEALNLPEVARYWQQVIDMNDYQRRRFASRIIDSLFNTVTDKKIAILGFAFKKDTGDTRESSSIYISKYLMDEGAHLHIYDPKVPREQIVVDLSHPGVSEDDQVSRLVTISKDPYEACDGAHAVVICTEWDMFKELDYERIHKKMLKPAFIFDGRRVLDGLHNELQTIGFQIETIGKKVSSKRIPYAPSGEIPKFSLQDPPNKKPKV |  | binds
